Experimental data reported in PMC10786891, “Massively parallel profiling of RNA-targeting CRISPR-Cas13d”.

T1: EsCas13d, nuclease-dead (Eubacterium siraeum, UniProt B0MS50, R295A;H300A;R849A;H854A)
T1 sequence: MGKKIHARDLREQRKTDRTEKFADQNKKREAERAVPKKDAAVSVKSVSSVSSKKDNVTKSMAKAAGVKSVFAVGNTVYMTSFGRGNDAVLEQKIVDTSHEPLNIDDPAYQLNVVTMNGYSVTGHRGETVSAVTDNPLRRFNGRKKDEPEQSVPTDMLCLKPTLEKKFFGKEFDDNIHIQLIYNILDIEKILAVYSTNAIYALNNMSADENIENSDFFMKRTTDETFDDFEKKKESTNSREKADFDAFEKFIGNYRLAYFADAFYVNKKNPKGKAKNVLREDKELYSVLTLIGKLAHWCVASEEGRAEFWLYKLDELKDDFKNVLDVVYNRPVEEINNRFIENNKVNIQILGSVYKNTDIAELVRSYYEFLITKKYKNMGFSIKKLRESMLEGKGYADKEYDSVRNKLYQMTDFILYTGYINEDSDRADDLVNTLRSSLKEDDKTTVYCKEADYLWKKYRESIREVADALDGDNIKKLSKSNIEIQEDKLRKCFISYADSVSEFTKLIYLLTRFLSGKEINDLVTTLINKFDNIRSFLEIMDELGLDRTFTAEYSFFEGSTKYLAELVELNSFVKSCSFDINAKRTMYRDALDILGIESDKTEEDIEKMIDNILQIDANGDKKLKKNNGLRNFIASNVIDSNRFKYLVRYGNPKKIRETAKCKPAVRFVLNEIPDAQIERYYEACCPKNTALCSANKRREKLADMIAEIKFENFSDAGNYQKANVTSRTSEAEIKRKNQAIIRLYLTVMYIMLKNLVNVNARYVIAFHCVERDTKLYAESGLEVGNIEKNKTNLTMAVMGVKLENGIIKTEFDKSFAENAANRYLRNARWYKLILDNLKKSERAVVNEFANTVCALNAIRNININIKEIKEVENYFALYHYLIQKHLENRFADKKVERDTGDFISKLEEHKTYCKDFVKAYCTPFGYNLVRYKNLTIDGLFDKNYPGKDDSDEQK

B1: target 1 insC 3' of 10,insA 3' of 7 (mixed)
RNA 1: CACCCGUGCAAAAAUGCAGGGGUCUAAAACUGAGCGGAUAACCUCUCUAUGG
RNA 2: GGGAAUGGAUCCACAUCUACGAAUUCGUACCAUAGAGAGGUUCAUCACGCUCACCGAGAUCGGAAGAGCACACGU
B2: target 1 U3A,C21U (mixed)
RNA 1: CACCCGUGCAAAAAUGCAGGGGUCUAAAACUGAGCGGAUAACCUCUCUAUGG
RNA 2: GGGAAUGGAUCCACAUCUACGAAUUCGUACUAUAGAGAGGUUAUCCGCACACCGAGAUCGGAAGAGCACACGU
B3: target 1 insU 3' of 20,insG 3' of 4 (mixed)
RNA 1: CACCCGUGCAAAAAUGCAGGGGUCUAAAACUGAGCGGAUAACCUCUCUAUGG
RNA 2: GGGAAUGGAUCCACAUCUACGAAUUCGUACCAUUAGAGAGGUUAUCCGCGUCACCGAGAUCGGAAGAGCACACGU
B4: target 1 insU 3' of 18,insC 3' of 12 (mixed)
RNA 1: CACCCGUGCAAAAAUGCAGGGGUCUAAAACUGAGCGGAUAACCUCUCUAUGG
RNA 2: GGGAAUGGAUCCACAUCUACGAAUUCGUACCAUAUGAGAGGCUUAUCCGCUCACCGAGAUCGGAAGAGCACACGU
B5: target 1 del17,del18 (mixed)
RNA 1: CACCCGUGCAAAAAUGCAGGGGUCUAAAACUGAGCGGAUAACCUCUCUAUGG
RNA 2: GGGAAUGGAUCCACAUCUACGAAUUCGUACCAUAGAGGUUAUCCGCUCACCGAGAUCGGAAGAGCACACGU
B6: target 1 G5U,A16U (mixed)
RNA 1: CACCCGUGCAAAAAUGCAGGGGUCUAAAACUGAGCGGAUAACCUCUCUAUGG
RNA 2: GGGAAUGGAUCCACAUCUACGAAUUCGUACCAUAGUGAGGUUAUCCUCUCACCGAGAUCGGAAGAGCACACGU
B7: target 1 insA 3' of 12,insA 3' of 8 (mixed)
RNA 1: CACCCGUGCAAAAAUGCAGGGGUCUAAAACUGAGCGGAUAACCUCUCUAUGG
RNA 2: GGGAAUGGAUCCACAUCUACGAAUUCGUACCAUAGAGAGGAUUAUACCGCUCACCGAGAUCGGAAGAGCACACGU
B8: target 1 insC 3' of 11,insG 3' of 4 (mixed)
RNA 1: CACCCGUGCAAAAAUGCAGGGGUCUAAAACUGAGCGGAUAACCUCUCUAUGG
RNA 2: GGGAAUGGAUCCACAUCUACGAAUUCGUACCAUAGAGAGGUCUAUCCGCGUCACCGAGAUCGGAAGAGCACACGU
B9: target 1 insG 3' of 18,insC 3' of 17 (mixed)
RNA 1: CACCCGUGCAAAAAUGCAGGGGUCUAAAACUGAGCGGAUAACCUCUCUAUGG
RNA 2: GGGAAUGGAUCCACAUCUACGAAUUCGUACCAUAGGCAGAGGUUAUCCGCUCACCGAGAUCGGAAGAGCACACGU
B10: target 1 insG 3' of 20,insA 3' of 13 (mixed)
RNA 1: CACCCGUGCAAAAAUGCAGGGGUCUAAAACUGAGCGGAUAACCUCUCUAUGG
RNA 2: GGGAAUGGAUCCACAUCUACGAAUUCGUACCAGUAGAGAGAGUUAUCCGCUCACCGAGAUCGGAAGAGCACACGU
B11: target 1 insA 3' of 15,insA 3' of 11 (mixed)
RNA 1: CACCCGUGCAAAAAUGCAGGGGUCUAAAACUGAGCGGAUAACCUCUCUAUGG
RNA 2: GGGAAUGGAUCCACAUCUACGAAUUCGUACCAUAGAGAAGGUAUAUCCGCUCACCGAGAUCGGAAGAGCACACGU
B12: target 1 C6U,A9C (mixed)
RNA 1: CACCCGUGCAAAAAUGCAGGGGUCUAAAACUGAGCGGAUAACCUCUCUAUGG
RNA 2: GGGAAUGGAUCCACAUCUACGAAUUCGUACCAUAGAGAGGUUCUCUGCUCACCGAGAUCGGAAGAGCACACGU
B13: target 1 U3A,U10C (mixed)
RNA 1: CACCCGUGCAAAAAUGCAGGGGUCUAAAACUGAGCGGAUAACCUCUCUAUGG
RNA 2: GGGAAUGGAUCCACAUCUACGAAUUCGUACCAUAGAGAGGUCAUCCGCACACCGAGAUCGGAAGAGCACACGU
B14: target 1 U3G,G17U (mixed)
RNA 1: CACCCGUGCAAAAAUGCAGGGGUCUAAAACUGAGCGGAUAACCUCUCUAUGG
RNA 2: GGGAAUGGAUCCACAUCUACGAAUUCGUACCAUAUAGAGGUUAUCCGCGCACCGAGAUCGGAAGAGCACACGU
B15: target 1 C7G,C22A (mixed)
RNA 1: CACCCGUGCAAAAAUGCAGGGGUCUAAAACUGAGCGGAUAACCUCUCUAUGG
RNA 2: GGGAAUGGAUCCACAUCUACGAAUUCGUAACAUAGAGAGGUUAUGCGCUCACCGAGAUCGGAAGAGCACACGU
B16: target 1 A14G,U19G (mixed)
RNA 1: CACCCGUGCAAAAAUGCAGGGGUCUAAAACUGAGCGGAUAACCUCUCUAUGG
RNA 2: GGGAAUGGAUCCACAUCUACGAAUUCGUACCAGAGAGGGGUUAUCCGCUCACCGAGAUCGGAAGAGCACACGU
B17: target 1 del7,del19 (mixed)
RNA 1: CACCCGUGCAAAAAUGCAGGGGUCUAAAACUGAGCGGAUAACCUCUCUAUGG
RNA 2: GGGAAUGGAUCCACAUCUACGAAUUCGUACCAAGAGAGGUUAUCGCUCACCGAGAUCGGAAGAGCACACGU
B18: target 1 insC 3' of 22,insG 3' of 9 (mixed)
RNA 1: CACCCGUGCAAAAAUGCAGGGGUCUAAAACUGAGCGGAUAACCUCUCUAUGG
RNA 2: GGGAAUGGAUCCACAUCUACGAAUUCGUACCCAUAGAGAGGUUAGUCCGCUCACCGAGAUCGGAAGAGCACACGU
B19: target 1 insG 3' of 22,insC 3' of 8 (mixed)
RNA 1: CACCCGUGCAAAAAUGCAGGGGUCUAAAACUGAGCGGAUAACCUCUCUAUGG
RNA 2: GGGAAUGGAUCCACAUCUACGAAUUCGUACGCAUAGAGAGGUUAUCCCGCUCACCGAGAUCGGAAGAGCACACGU
B20: target 1 insC 3' of 22,insC 3' of 3 (mixed)
RNA 1: CACCCGUGCAAAAAUGCAGGGGUCUAAAACUGAGCGGAUAACCUCUCUAUGG
RNA 2: GGGAAUGGAUCCACAUCUACGAAUUCGUACCCAUAGAGAGGUUAUCCGCUCCACCGAGAUCGGAAGAGCACACGU
B21: target 1 insC 3' of 15,insG 3' of 14 (mixed)
RNA 1: CACCCGUGCAAAAAUGCAGGGGUCUAAAACUGAGCGGAUAACCUCUCUAUGG
RNA 2: GGGAAUGGAUCCACAUCUACGAAUUCGUACCAUAGAGCAGGGUUAUCCGCUCACCGAGAUCGGAAGAGCACACGU
B22: target 1 insC 3' of 19,insC 3' of 8 (mixed)
RNA 1: CACCCGUGCAAAAAUGCAGGGGUCUAAAACUGAGCGGAUAACCUCUCUAUGG
RNA 2: GGGAAUGGAUCCACAUCUACGAAUUCGUACCAUCAGAGAGGUUAUCCCGCUCACCGAGAUCGGAAGAGCACACGU
B23: target 1 U10C,C21U (mixed)
RNA 1: CACCCGUGCAAAAAUGCAGGGGUCUAAAACUGAGCGGAUAACCUCUCUAUGG
RNA 2: GGGAAUGGAUCCACAUCUACGAAUUCGUACUAUAGAGAGGUCAUCCGCUCACCGAGAUCGGAAGAGCACACGU
B24: target 1 insG 3' of 7,insG 3' of 3 (mixed)
RNA 1: CACCCGUGCAAAAAUGCAGGGGUCUAAAACUGAGCGGAUAACCUCUCUAUGG
RNA 2: GGGAAUGGAUCCACAUCUACGAAUUCGUACCAUAGAGAGGUUAUCGCGCUGCACCGAGAUCGGAAGAGCACACGU
B25: target 1 insU 3' of 22,insA 3' of 11 (mixed)
RNA 1: CACCCGUGCAAAAAUGCAGGGGUCUAAAACUGAGCGGAUAACCUCUCUAUGG
RNA 2: GGGAAUGGAUCCACAUCUACGAAUUCGUACUCAUAGAGAGGUAUAUCCGCUCACCGAGAUCGGAAGAGCACACGU
B26: target 1 C6G,C21A (mixed)
RNA 1: CACCCGUGCAAAAAUGCAGGGGUCUAAAACUGAGCGGAUAACCUCUCUAUGG
RNA 2: GGGAAUGGAUCCACAUCUACGAAUUCGUACAAUAGAGAGGUUAUCGGCUCACCGAGAUCGGAAGAGCACACGU
B27: target 1 insA 3' of 19,insA 3' of 5 (mixed)
RNA 1: CACCCGUGCAAAAAUGCAGGGGUCUAAAACUGAGCGGAUAACCUCUCUAUGG
RNA 2: GGGAAUGGAUCCACAUCUACGAAUUCGUACCAUAAGAGAGGUUAUCCGACUCACCGAGAUCGGAAGAGCACACGU
B28: target 1 insC 3' of 17,insC 3' of 5 (mixed)
RNA 1: CACCCGUGCAAAAAUGCAGGGGUCUAAAACUGAGCGGAUAACCUCUCUAUGG
RNA 2: GGGAAUGGAUCCACAUCUACGAAUUCGUACCAUAGCAGAGGUUAUCCGCCUCACCGAGAUCGGAAGAGCACACGU

molecular target: T1, EsCas13d, nuclease-dead; assay: crRNA (strand 1, pre-loaded); Mg2+; 40 mM Tris-HCl pH 7.5, 150 mM NaCl, 6 mM MgCl2, 1 mM DTT, 0.1% Tween-20, 0.2 mg/ml BSA; 25 C; 10 min per concentration, then washed; settings: tags: His6-TwinStrep-SUMO cleaved; N-terminal SNAP kept (SNAP-Surface 488); label: 3' end held by stalled T7 RNA polymerase

| Binder | Kd [nM] |
| --- | --- |
| B1 | 11.2 ± 0.6 |
| B2 | 19 ± 6 |
| B3 | 10.4 ± 0.7 |
| B4 | ~90 |
| B5 | 13.9 ± 1.6 |
| B6 | 66 ± 10 |
| B7 | 37 ± 3.3 |
| B8 | 22.7 ± 1.2 |
| B9 | 89 ± 32 |
| B10 | 32 ± 8 |
| B11 | 14.8 ± 0.8 |
| B12 | 33.1 ± 1.9 |
| B13 | 19.7 ± 2 |
| B14 | 20.8 ± 1.6 |
| B15 | 14.2 ± 0.6 |
| B16 | ~80 |
| B17 | 52 ± 6 |
| B18 | 33 ± 16 |
| B19 | ~90 |
| B20 | 15.6 ± 1.3 |
| B21 | 22.7 ± 1.8 |
| B22 | 52 ± 5 |
| B23 | 8.5 ± 0.4 |
| B24 | 5.41 ± 0.21 |
| B25 | 66 ± 15 |
| B26 | 24.3 ± 1.5 |
| B27 | 16 ± 1.2 |
| B28 | 61 ± 6 |
